The record followed here is publication PMC10614612, “Identification of a carbonic anhydrase–Rubisco complex within the alpha-carboxysome” (Proceedings of the National Academy of Sciences of the …, 2023).

The assay concerns the target T1, biotinylated Rubisco (H. neapolitanus CbbL8S8) (H. neapolitanus, UniProt O85040 1-473; P45686 1-110, biotin (sites and subunit not stated)).
T1 construct: Rubisco large subunit CbbL, H. neapolitanus, alpha-carboxysomal Form IA; Rubisco small subunit CbbS, H. neapolitanus; Held on streptavidin sensors; how it was biotinylated is in the SI Appendix methods; source: E. coli, coexpressed with GroEL/ES, purified (Strep-tag purification), biotinylated; copies: 8 + 8
Description: BLI; biotinylated Rubisco immobilised on streptavidin biosensors; 62.5–2.0 nM CsoSCA-MBP as prey; 25 mM Tris pH 7.5, 125 mM NaCl, 0.01% Triton X100; 1:1 binding model; triplicate. As to conditions: both partners purified. On the technique in general: BLI is a label-free optical method that tracks binding on a fibre tip over time.

B1: CsoSCA-MBP (enzyme, H. neapolitanus, UniProt O85042 1-514, looked up)
chain: MNTRNTRSKQRAPFGVSSSVKPRLDLIEQAPNPAYDRHPACITLPERTCRHPLTDLEANEQLGRCEDSVKNRFDRVIPFLQVVAGIPLGLDYVTRVQELAQSSLGHTLPEELLKDNWISGHNLKGIFGYATAKALTAATEQFSRKIMSEKDDSASAIGFFLDCGFHAVDISPCADGRLKGLLPYILRLPLTAFTYRKAYAGSMFDIEDDLAQWEKNELRRYREGVPNTADQPTRYLKIAVYHFSTSDPTHSGCAAHGSNDRAALEAALTQLMKFREAVENAHCCGASIDILLIGVDTDTDAIRVHIPDSKGFLNPYRYVDNTVTYAQTLHLAPDEARVIIHEAILNANRSDGWAKGNGVASEGMRRFIGQLLINNLSQIDYVVNRHGGRYPPNDIGHAERYISVGDGFDEVQIRNLAYYAHLDTVEENAIDVDVGIKIFTKLNLSRGLPIPIAIHYRYDPNVPGSRERTVVKARRIYNAIKERFSSLDEQNLLQFRLSVQAQDIGSPIEEVASA
notes: CsoSCA, beta-carbonic anhydrase of the alpha-carboxysome, H. neapolitanus; also called CsoSCA-MBP-his; C-terminal MBP tagged CsoSCA; source: E. coli, purified (His-tag purification, size exclusion chromatography); not shown: MBP, C-terminal, kept
As to B1, binding was characterised by a dissociation constant (Kd) of 1.2 ± 0.1 nM.

For orientation: Kd means the concentration at which binding is half-saturated. A lower Kd goes with higher affinity.
